# Test results from publication PMC5612113.
# B1: Notch4 TM helix-containing fragment, Notch4(1432–1481) [human] / itself (parent)
# chain: VHPHAGTAPPANQLPWPVLCSPVAGVILLALGALLVLQLIRRRRREHGAL
# B2: Notch1 TM helix-containing fragment, Notch1(1721–1767) [human] / itself (parent)
# chain: VQSETVEPPPPAQLHFMYVAAAAFVLLFFVGCGVLLSRKRRRQHGQL
# B3: Notch2 TM helix-containing fragment, Notch2(1666–1710) [human] / itself (parent)
# chain: VVSESLTPERTQLLYLLAVAVVIILFIILLGVIMAKRKRKHGSLW
# B4: Notch3 TM helix-containing fragment, Notch3(1629–1675) [human] / itself (parent)
# chain: VRGEPLEPPEPSVPLLPLLVAGAVLLLVILVLGVMVARRKREHSTLW
# Variants of: B1
# Assay: Tango assay
# Settings: with itself;; read off a plot
row,response (relative activity (C99-WT = 100)),Variant
1,130,VHPHAGTAPPANQLPWPVLCSPPPGVILLALGALLVLQLIRRRRREHGAL [chain 1 V23P A24P]
2,140,VHPHAGTAPPANQLPWPVLCSPVAGVILLALGPPLVLQLIRRRRREHGAL [chain 1 A33P L34P]
3,93,VHPHAGTAPPANQLPWPVLCSPVAGVILLAPPALLVLQLIRRRRREHGAL [chain 1 L31P G32P]

# Variants of: B2
# Assay: Tango assay
# Settings: with itself;; read off a plot
row,response (relative activity (C99-WT = 100)),Variant
1,91,VQSETVEPPPPAQLHFMYVAAAAFVLLFFPPCGVLLSRKRRRQHGQL [chain 1 V30P G31P]
2,130,VQSETVEPPPPAQLHFMYVPPAAFVLLFFVGCGVLLSRKRRRQHGQL [chain 1 A20P A21P]
3,93,VQSETVEPPPPAQLHFMYVAAAAFVLLPPVGCGVLLSRKRRRQHGQL [chain 1 F28P F29P]

# Variants of: B3
# Assay: Tango assay
# Settings: with itself;; read off a plot
row,response (relative activity (C99-WT = 100)),Variant
1,82,VVSESLTPERTQLLYLLPPAVVIILFIILLGVIMAKRKRKHGSLW [chain 1 A18P V19P]
2,46,VVSESLTPERTQLLYLLAVAVVIILPPILLGVIMAKRKRKHGSLW [chain 1 F26P I27P]
3,53,VVSESLTPERTQLLYLLAVAVVIILFIPPLGVIMAKRKRKHGSLW [chain 1 I28P L29P]

# Variants of: B4
# Assay: Tango assay
# Settings: with itself;; read off a plot
row,response (relative activity (C99-WT = 100)),Variant
1,91,VRGEPLEPPEPSVPLLPLLVAGAVLLLVIPPLGVMVARRKREHSTLW [chain 1 L30P V31P]
2,62,VRGEPLEPPEPSVPLLPLLVAGAVLLLPPLVLGVMVARRKREHSTLW [chain 1 V28P I29P]
3,84,VRGEPLEPPEPSVPLLPLLPPGAVLLLVILVLGVMVARRKREHSTLW [chain 1 V20P A21P]
